The record followed here is US20150086555A1.

Holding throughout (details): remark: other sources report otherwise
The target in experiment [1] is recombinant soluble homotrimeric HA of A/Netherlands/219/03 (H7N7) (Influenza A virus A/Netherlands/219/03(H7N7)). The experiment in a line: HA microarray, BCC supernatant.
Experiment [2] concerns the target recombinant soluble homotrimeric HA of A/Anhui/1/05 (H5N1) (Influenza A virus A/Anhui/1/2005(H5N1)). As to the kind of experiment: HA microarray, BCC supernatant.
Experiment [3] deals with recombinant soluble homotrimeric HA of A/duck/Yangzhou/02/05 (H8N4) (Influenza A virus A/duck/Yangzhou/02/2005(H8N4)). The experiment in a line: HA microarray, BCC supernatant.
In experiment [4] the target is recombinant soluble homotrimeric HA of A/Solomon Islands/3/06 (H1N1) (Influenza A virus A/Solomon Islands/3/2006(H1N1)). The experiment in a line: HA microarray, BCC supernatant.
The target of experiment [5] is recombinant soluble homotrimeric HA of A/Japan/305/57 (H2N2) (Influenza A virus A/Japan/305/1957(H2N2)). As to the kind of experiment: HA microarray, BCC supernatant.
Experiment [6] deals with recombinant soluble homotrimeric HA of A/Vietnam/1203/04 (H5N1) (Influenza A virus A/VietNam/1203/2004(H5N1)). As to the kind of experiment: HA microarray, BCC supernatant.
Experiment [7] concerns the target recombinant soluble homotrimeric HA of A/Indonesia/5/05 (H5N1) (Influenza A virus A/Indonesia/5/2005(H5N1)). As to the kind of experiment: HA microarray, BCC supernatant.
In experiment [8] the target is recombinant soluble homotrimeric HA of A/chicken/Vietnam/NCVD-016/08 (H5N1) (Influenza A virus A/chicken/Vietnam/NCVD-016/2008(H5N1)). As to the kind of experiment: HA microarray, BCC supernatant.
Experiment [9] deals with recombinant soluble homotrimeric HA of A/northern shoveler/California/HKWF115/07 (H6) (Influenza A virus A/northern shoveler/California/HKWF115/2007(H6N1)). As to the kind of experiment: HA microarray, BCC supernatant.
Experiment [10] deals with recombinant soluble homotrimeric HA of A/Wisconsin/67/05 (H3N2) (Influenza A virus A/Wisconsin/67/2005(H3N2)). The experiment in a line: HA microarray, BCC supernatant.
Experiment [11] deals with recombinant soluble homotrimeric HA of A/California/4/09 (H1N1) (Influenza A virus A/California/04/2009(H1N1)). The experiment in a line: HA microarray, BCC supernatant.
For experiment [12], the target named is recombinant homotrimeric HA A/Hong Kong/156/97 H5N1 (Influenza A virus A/Hong Kong/156/97 (H5N1)). The experiment in a line: protein microarray, purified IgG, trimeric HA.
The target in experiment [13] is recombinant homotrimeric HA A/Hong Kong/2108/03 H9N2 (Influenza A virus A/HK/2108/2003(H9N2)). As to the kind of experiment: protein microarray, purified IgG, trimeric HA.
Experiment [14] has as its target recombinant homotrimeric HA A/Wisconsin/67/05 H3N2 (Influenza A virus A/Wisconsin/67/2005(H3N2)). The experiment in a line: protein microarray, purified IgG, trimeric HA.
Experiment [15] has as its target recombinant homotrimeric HA A/Vietnam/1203/04 H5N1 (Influenza A virus A/VietNam/1203/2004(H5N1)). As to the kind of experiment: protein microarray, purified IgG, trimeric HA.
The target in experiment [16] is recombinant homotrimeric HA A/Japan/305/57 H2N2 (Influenza A virus A/Japan/305/1957(H2N2)). As to the kind of experiment: protein microarray, purified IgG, trimeric HA.
The target of experiment [17] is recombinant homotrimeric HA A/Egypt/3300-NAMRU3/08 H5N1 (Influenza A virus A/Egypt/3300-NAMRU3/2008(H5N1)). The experiment in a line: protein microarray, purified IgG, trimeric HA.
The target of experiment [18] is recombinant homotrimeric HA A/Solomon Islands/3/06 H1N1 (Influenza A virus A/Solomon Islands/3/2006(H1N1)). The experiment in a line: protein microarray, purified IgG, trimeric HA.
Experiment [19] concerns the target recombinant homotrimeric HA A/northern shoveler/California/HKWF115/07 H6N4 (Influenza A virus A/northern shoveler/California/HKWF115/2007(H6N1)). The experiment in a line: protein microarray, purified IgG, trimeric HA.
The target of experiment [20] is recombinant homotrimeric HA A/Anhui/1/05 H5N1 (Influenza A virus A/Anhui/1/2005(H5N1)). As to the kind of experiment: protein microarray, purified IgG, trimeric HA.
For experiment [21], the target named is recombinant homotrimeric HA A/chicken/Vietnam/NCVD-016/08 H5N1 (Influenza A virus A/chicken/Vietnam/NCVD-016/2008(H5N1)). The experiment in a line: protein microarray, purified IgG, trimeric HA.
Experiment [22] deals with recombinant homotrimeric HA A/Netherlands/219/03 H7N7 (Influenza A virus A/Netherlands/219/03(H7N7)). The experiment in a line: protein microarray, purified IgG, trimeric HA.
Experiment [23] addresses recombinant homotrimeric HA A/California/4/09 H1N1 (Influenza A virus A/California/04/2009(H1N1)). As to the kind of experiment: protein microarray, purified IgG, trimeric HA.
In experiment [24] the target is recombinant homotrimeric HA A/South Carolina/1/18 H1N1 (Influenza A virus A/South Carolina/1/18 (H1N1)). As to the kind of experiment: protein microarray, purified IgG, trimeric HA.
For experiment [25], the target named is recombinant homotrimeric HA A/Indonesia/5/05 H5N1 (Influenza A virus A/Indonesia/5/2005(H5N1)). As to the kind of experiment: protein microarray, purified IgG, trimeric HA.
In experiment [26] the target is recombinant homotrimeric HA A/Hong Kong/1073/99 H9N2 (Influenza A virus A/Hong Kong/1073/99 (H9N2)). As to the kind of experiment: protein microarray, purified IgG, trimeric HA.
For experiment [27], the target named is recombinant soluble homotrimeric HA of A/swine/Ontario/01911-2/99 (H4N6) (Influenza A virus A/Swine/Ontario/01911-2/99 (H4N6)). As to the kind of experiment: HA microarray, BCC supernatant.

B1: TCN-552 (5249_I23) (antibody, V domains shown)
VH: QVQVVQSGAEVKKPGSSVRVSCQASGGTFMNYAIIWVRRAPGQGLEWMGGIIPVFPTPNYAQMFQGRVTISTDESRSTSFLELTNLRYEDTAVYYCARRIYHGGNSGFDFWGQGTLVTVSS
VL: EIVLTQSPATLSLSPGERATLSCRASQSVGNYLAWYQQKPGQAPRLLIYDSSNRAPGIPARFSGSGSGTDFTLTISSLAPEDFAVYYCQQRSKWPPMYSFGHGTKLEIK
For the molecule B1, the Trimeric HA Binding: RLU in experiment [1] stood at 1240 RLU; in experiment [2], 4160 RLU; in [3], 13100 RLU; in experiment [4], 39300 RLU; in [5], 23800 RLU; in experiment [6] it was 2730 RLU. Besides, the Trimeric HA Binding: RLU in [7] stood at 43600 RLU; in experiment [8], 46200 RLU; in experiment [9], 38400 RLU; in experiment [10], 14800 RLU; in experiment [11], 35300 RLU; in [12], 16200 RLU. The Trimeric HA Binding: RLU in [13] was 161 RLU; in [14], 123 RLU; in experiment [15], 27000 RLU; in experiment [16], 24700 RLU; in experiment [17], 20300 RLU; in experiment [18], 19400 RLU. Also, the Trimeric HA Binding: RLU in [19] was found to be 8970 RLU; in experiment [20] it was 4520 RLU; in experiment [21], 4300 RLU; in [22], 470 RLU; in experiment [23], 23900 RLU; in experiment [24], 14200 RLU. Also, the Trimeric HA Binding: RLU in [25] was found to be 23600 RLU.

B2: TCN-555 (5246_L16) (antibody, V domains shown)
VH: QVQLVQSGAEVKRPGSSVKVSCTASGGIFRKNAISWVRQAPGQGLEWMGGIIAVFNTANYAQKFQNRVKITADESGNTAYMELSSLTSDDTAVYYCASHPKYFYGSGSYPDFWGQGTLVTVSS
VL: QSALTQPRSVSGSPGQSITISCTGGSSDIGASNSVSWYQQHPGKAPKLVIFDVTERPSGVPHRFSGSKSGNTASLTVSGLQPDDEADYFCCAYGGKYLVVFGGGTKVTVL
For the molecule B2, the Trimeric HA Binding: RLU in [1] was found to be 3400 RLU; in [2], 1500 RLU; in experiment [3] it was 18400 RLU; in [4] it was 26400 RLU; in experiment [5], 2130 RLU; in experiment [6], 876 RLU. Besides, the Trimeric HA Binding: RLU in experiment [7] is 34500 RLU; in experiment [8], 22300 RLU; in [9] it was 49500 RLU; in experiment [10], 9800 RLU; in experiment [11] it was 44900 RLU; in experiment [12], 13100 RLU. Moreover, the Trimeric HA Binding: RLU stood at 302 RLU in experiment [13]; 369 RLU in experiment [14]; 26500 RLU in experiment [15]; 10700 RLU in [16]; 20200 RLU in experiment [17]; 17900 RLU in experiment [18]. Further, the Trimeric HA Binding: RLU came to 15600 RLU in [19]; 6630 RLU in [20]; 4420 RLU in [21]; 1330 RLU in experiment [22]; 25500 RLU in [23]; 13700 RLU in experiment [24]. In addition, the Trimeric HA Binding: RLU in [26] was determined as 3440 RLU; in [25] it was 15600 RLU.

B3: TCN-563 (5237_B21) (antibody, V domains shown)
VH: QVQLAQSGAEVKRPGSSVKVSCTASGGIFRKNAISWVRQAPGQGLEWMGGIIAVFNTANYAQKFQGRVKITADESGNTAYMELSSLRSDDTAVYYCASHPKYFYGSGSYPDFWGQGTLVTVSS
VL: QSALTQPRSVSGSPGQSVTISCTGSSSDVGASNSVSWYQQHPGKAPKLVIYDVTERPSGVPHRFSGSKSGNTASLTVSGLQPEDEADYFCCAYGGKYLVVFGGGTKVTVL
In the case of B3, the Trimeric HA Binding: RLU in experiment [1] was 7520 RLU; in [2], 9580 RLU; in [3], 46700 RLU; in [4] it was 30000 RLU; in experiment [5], 6610 RLU; in [6], 4840 RLU. Besides, the Trimeric HA Binding: RLU in [7] was found to be 39500 RLU; in experiment [27], 4500 RLU; in experiment [8] it was 41000 RLU; in experiment [9], 27300 RLU; in experiment [10], 40800 RLU; in experiment [11], 45200 RLU.

B4: TCN-539 (5056_A08) (antibody, V domains shown)
VH: QVQLVESGGGVVQPGRSLRLSCAASEITFITYAMHWVRQAPGKGLEWVALISDDGSNKFYADSVKGRFTISRDNSKNTLYLQMNSLRAEDTAAYYCAREGVYFDSGTYRGYFDYWGQETLVTVSS
VL: EIVLTQSPATLSLSPGERATLSCRASQSVSSYLAWYQQKPGQAPRLLIYDASNRATGIPARFSGSGSGTDFTLTISSLEPEDFAVYYCQQRSHWPPITFGQGTRLEIK
On to B4, for which the Trimeric HA Binding: RLU was 1700 RLU in [1]; 91 RLU in experiment [2]; 239 RLU in experiment [4]; 468 RLU in experiment [5]; 545 RLU in [6]; 1580 RLU in experiment [27]. Further, the Trimeric HA Binding: RLU in [8] was determined as 100 RLU; in experiment [9], 814 RLU; in [10], 715 RLU; in experiment [12] it was 103 RLU; in experiment [13], 140 RLU; in [14] it was 8850 RLU. In addition, the Trimeric HA Binding: RLU in experiment [15] was 636 RLU; in [16], 544 RLU; in experiment [18] it was 1060 RLU; in experiment [19] it was 124 RLU; in experiment [20], 570 RLU; in [21] it was 144 RLU. In addition, the Trimeric HA Binding: RLU in experiment [22] worked out at 161 RLU; in experiment [23], 129 RLU; in experiment [24] it was 60 RLU; in [26], 416 RLU.
